Reference: patent US20250043302A1, “MUTATED HYDROXYPHENYLPYRUVATE DIOXYGENASE POLYPEPTIDE, AND CODING GENE AND USE THEREOF” (BEIJING DABEINONG BIOTECHNOLOGY CO., LTD., priority 2021, published 2025)

Experiments:
Format in all cases: in vivo
[1] = test system: Arabidopsis thaliana T1 plants; experiment: Topramezone tolerance of transgenic Arabidopsis thaliana T1 plants (spray, bleached leaf area grade, damage score); conditions: Table 10; for Classification and statistics of the grade of pesticide damage Grade 0: number of plants at grade 0; for Classification and statistics of the grade of pesticide damage Grade 1: number of plants at grade 1; for Classification and statistics of the grade of pesticide damage Grade 2: number of plants at grade 2; for Classification and statistics of the grade of pesticide damage Grade 3: number of plants at grade 3; for Scores: pesticide damage score
Outline: (§1)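 Read-out: per-plant damage grade 0–3 from proportion of bleached leaf area at 7 DAT (1 <50%, 2 >50%, 3 100%). Plants were T1 transformants, glufosinate-selected, plus wild-type CK, sprayed 18 days post-sowing. Rates: topramezone 25–200, isoxaflutole 35–280, mesotrione 52.5–420 g ai/ha.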

[2] = test system: Arabidopsis thaliana T1 plants; experiment: Isoxaflutole tolerance of transgenic Arabidopsis thaliana T1 plants (spray, bleached leaf area grade, damage score); conditions: Table 11; for Classification and statistics of the grade of pesticide damage Grade 0: number of plants at grade 0; for Classification and statistics of the grade of pesticide damage Grade 1: number of plants at grade 1; for Classification and statistics of the grade of pesticide damage Grade 2: number of plants at grade 2; for Classification and statistics of the grade of pesticide damage Grade 3: number of plants at grade 3; for Scores: pesticide damage score;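 as to Scores: Weighted damage index from 0 to 100 where higher means more damage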
Outline: as §1

[3] = test system: Arabidopsis thaliana T1 plants; experiment: Mesotrione tolerance of transgenic Arabidopsis thaliana T1 plants (spray, bleached leaf area grade, damage score); set-up: Scores: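 damage score 0-100 computed as Σ(N×S)/(T×M)×100 over grades 0-3 with higher meaning more damage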; conditions: Table 12; for Classification and statistics of the grade of pesticide damage Grade 0: number of plants at grade 0; for Classification and statistics of the grade of pesticide damage Grade 1: number of plants at grade 1; for Classification and statistics of the grade of pesticide damage Grade 2: number of plants at grade 2; for Classification and statistics of the grade of pesticide damage Grade 3: number of plants at grade 3; for Scores: pesticide damage score
Outline: as §1

B1: HPPDm-3-02: nucleotide sequence encoding Avena sativa HPPD with A106G+F372A+F383W; vector DBN11784 (nucleic acid)
DNA: ATGCCACCTACTCCAGCTACAGCTACTGGTGCTGCTGCTGCTGCCGTTACTCCTGAGCACGCTGCCAGGTCATTCCCCAGGGTGGTTCGCGTGAACCCCAGATCTGATAGGTTCCCAGTTCTGAGCTTCCACCATGTTGAGCTGTGGTGCGCTGATGCTGCTTCTGCTGCTGGCAGGTTCTCTTTCGCTCTTGGTGCTCCACTCGCTGCTAGATCTGATCTGTCTACAGGAAATAGCGCTCATGCCTCACTCCTGCTTCGCTCAGGTGCTTTGGCCTTCCTCTTCACCGCTCCATATGCTCCCCCACCTCAGGAGGGTGCTACTGCTGCTGCTACAGCCTCCATTCCAAGCTTCTCAGCTGATGCCGCTAGAACCTTCGCTGCTGCTCATGGACTTGCCGTGAGGTCTGTTGGTGTTCGCGTGGCTGATGCTGCTGAGGCTTTCAGAGTTTCCGTTGCCGGCGGAGCTAGGCCAGCTTTCGCTCCTGCTGATTTGGGACATGGTTTCGGCCTGGCTGAGGTTGAGCTTTACGGTGACGTGGTTCTCCGCTTCGTGTCTTACCCAGATGAGACTGACCTGCCTTTCCTTCCCGGCTTCGAGAGAGTTTCCTCTCCTGGTGCCGTGGATTACGGCCTGACAAGGTTCGACCACGTGGTTGGAAACGTTCCCGAGATGGCTCCAGTGATCGATTACATGAAGGGCTTCCTTGGATTCCATGAGTTCGCCGAGTTCACTGCTGAGGACGTGGGAACCACTGAGTCCGGTTTGAACTCTGTGGTTCTCGCCAACAATTCTGAGGCTGTTTTGCTCCCTCTGAATGAGCCTGTGCATGGAACCAAGAGGAGAAGCCAGATTCAAACTTACCTGGAGTACCACGGTGGCCCTGGAGTTCAGCATATCGCCCTTGCTTCTAATGATGTGTTGCGCACACTCAGAGAGATGCGCGCCAGAACCCCCATGGGAGGTTTCGAGTTCATGGCCCCACCACAGGCTAAGTACTACGAGGGCGTTAGAAGGATTGCTGGAGACGTGTTGAGCGAGGAGCAGATCAAGGAGTGCCAAGAGCTGGGTGTTCTTGTGGATAGGGATGACCAGGGCGTTCTGCTTCAAATTGCCACTAAGCCAGTGGGCGACCGCCCTACATTCTGGCTTGAGATGATTCAAAGAATCGGCTGCATGGAGAAGGATGAGGTTGGACAGGAGTACCAAAAGGGCGGATGCGGTGGCTTCGGAAAGGGTAACTTCAGCGAGTTGTTCAAGTCAATCGAGGACTACGAGAAGAGCCTCGAGGTGAAGCAGTCAGTGGTTGCCCAAAAGTCCTGA
modifications: HPPDm-3-02 Nucleotide Sequence
notes: vector DBN11784
Resistance evaluation ([1]; topramezone 100 g ai/ha (4×)): Highly resistant
Classification and statistics of the grade of pesticide damage Grade 0 ([1]; topramezone 100 g ai/ha (4×)): 16
Classification and statistics of the grade of pesticide damage Grade 1 ([1]; topramezone 100 g ai/ha (4×)): 0
Classification and statistics of the grade of pesticide damage Grade 2 ([1]; topramezone 100 g ai/ha (4×)): 0
Classification and statistics of the grade of pesticide damage Grade 3 ([1]; topramezone 100 g ai/ha (4×)): 0
Scores ([1]; topramezone 100 g ai/ha (4×)): 0
Resistance evaluation ([1]; topramezone 200 g ai/ha (8×)): Highly resistant
Classification and statistics of the grade of pesticide damage Grade 0 ([1]; topramezone 200 g ai/ha (8×)): 16
Classification and statistics of the grade of pesticide damage Grade 1 ([1]; topramezone 200 g ai/ha (8×)): 0
Classification and statistics of the grade of pesticide damage Grade 2 ([1]; topramezone 200 g ai/ha (8×)): 0
Classification and statistics of the grade of pesticide damage Grade 3 ([1]; topramezone 200 g ai/ha (8×)): 0
Scores ([1]; topramezone 200 g ai/ha (8×)): 0
Resistance evaluation ([2]; isoxaflutole 140 g ai/ha (2×)): Highly resistant
Classification and statistics of the grade of pesticide damage Grade 0 ([2]; isoxaflutole 140 g ai/ha (2×)): 16
Classification and statistics of the grade of pesticide damage Grade 1 ([2]; isoxaflutole 140 g ai/ha (2×)): 0
Classification and statistics of the grade of pesticide damage Grade 2 ([2]; isoxaflutole 140 g ai/ha (2×)): 0
Classification and statistics of the grade of pesticide damage Grade 3 ([2]; isoxaflutole 140 g ai/ha (2×)): 0
Scores ([2]; isoxaflutole 140 g ai/ha (2×)): 0
Resistance evaluation ([2]; isoxaflutole 280 g ai/ha (4×)): Highly resistant
Classification and statistics of the grade of pesticide damage Grade 0 ([2]; isoxaflutole 280 g ai/ha (4×)): 12
Classification and statistics of the grade of pesticide damage Grade 1 ([2]; isoxaflutole 280 g ai/ha (4×)): 4
Classification and statistics of the grade of pesticide damage Grade 2 ([2]; isoxaflutole 280 g ai/ha (4×)): 0
Classification and statistics of the grade of pesticide damage Grade 3 ([2]; isoxaflutole 280 g ai/ha (4×)): 0
Scores ([2]; isoxaflutole 280 g ai/ha (4×)): 8
Resistance evaluation ([3]; mesotrione 210 g ai/ha (2×)): Highly resistant
Classification and statistics of the grade of pesticide damage Grade 0 ([3]; mesotrione 210 g ai/ha (2×)): 16
Classification and statistics of the grade of pesticide damage Grade 1 ([3]; mesotrione 210 g ai/ha (2×)): 0
Classification and statistics of the grade of pesticide damage Grade 2 ([3]; mesotrione 210 g ai/ha (2×)): 0
Classification and statistics of the grade of pesticide damage Grade 3 ([3]; mesotrione 210 g ai/ha (2×)): 0
Scores ([3]; mesotrione 210 g ai/ha (2×)): 0
Resistance evaluation ([3]; mesotrione 420 g ai/ha (4×)): Highly resistant
Classification and statistics of the grade of pesticide damage Grade 0 ([3]; mesotrione 420 g ai/ha (4×)): 14
Classification and statistics of the grade of pesticide damage Grade 1 ([3]; mesotrione 420 g ai/ha (4×)): 2
Classification and statistics of the grade of pesticide damage Grade 2 ([3]; mesotrione 420 g ai/ha (4×)): 0
Classification and statistics of the grade of pesticide damage Grade 3 ([3]; mesotrione 420 g ai/ha (4×)): 0
Scores ([3]; mesotrione 420 g ai/ha (4×)): 4
